Reference: paper PMC4499801, “Resolving single membrane fusion events on planar pore-spanning membranes” (Scientific Reports, 2015)
Primed or numbered codes have the meaning given here. Where no end group is shown, it is not given here. PEG12′ = PEG spacer of 12 units between cholesterol and peptide

B1: synaptobrevin 2 (residues 49-96, soluble C-terminal fragment) (domain or fragment, Rattus norvegicus, UniProt P63045 49-96, looked up)
chain: NVDKVLERDQKLSELDDRADALQAGASQFETSAAKLKRKYWWKNLKMM
notes: synaptobrevin 2, Rattus norvegicus, residues 49-96; also called C-terminal soluble fragment of synaptobrevin 2 (residues 49-96); soluble fragment of synaptobrevin 2; source: E. coli BL21(DE3), pET28a, purified (Ni-NTA, MonoS)
B2: cholesterol-PEG12-(KIAALKE)4 (peptide)
peptide: {cholesterol-PEG12′}-KIAALKEKIAALKEKIAALKEKIAALKE
notes: printed as (KIAALKE)4, written out four times; coiled coil forming lipidated peptide; also called SNARE fusion mimetic; lipopeptide; source: reconstituted into large unilamellar vesicles

Columns and labels:
[1] = target: T1, syntaxin 1A (residues 183-288) (Rattus norvegicus, UniProt P32851 183-288); assay: assembly of the complex from purified proteins and purification by ion exchange chromatography (MonoQ); three purified proteins mixed with an excess of SNAP25a (1:1:1.5) in 1% CHAPS, over night at 7 °C, complex purified by MonoQ; details: both partners purified
T1 construct: syntaxin 1A, Rattus norvegicus, residues 183-288; source: E. coli BL21(DE3), pET28a, purified (Ni-NTA, MonoQ, 1% CHAPS); also reconstituted alone into pore-spanning membranes

[2] = target: T2, cholesterol-PEG12-(EIAALEK)4 (cholesterol-PEG12 anchor, as printed: cholesterol-PEG12-(EIAALEK)4); assay: single vesicle docking on planar pore-spanning membranes (two color confocal fluorescence microscopy); target reconstituted in pore-spanning membranes (DOPC/POPE/POPS/cholesterol 5:2:1:2, 1,000:1, Oregon Green DHPE), binder in Texas Red DHPE doped LUVs (1,000:1, 325 nm); buffer A (20 mM HEPES, 100 mM KCl, 1 mM DTT, pH 7.4); time series of 300 s; details: both partners purified
T2 construct: printed as (EIAALEK)4, written out four times; coiled coil forming lipidated peptide; also called SNARE fusion mimetic; lipopeptide; source: reconstituted into pore-spanning membranes
T2 peptide: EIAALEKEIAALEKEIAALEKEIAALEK

T1 sequence (P32851 183-288): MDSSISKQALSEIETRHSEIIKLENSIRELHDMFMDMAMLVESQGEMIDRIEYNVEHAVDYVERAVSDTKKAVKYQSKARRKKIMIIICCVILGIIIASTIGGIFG

Row | Binder | binding result [1] | binding result [2]
1 | B1 | binds | –
2 | B2 | – | binds
